Results published in PMC10397247.
One block for each binder: values may come before it.

Columns and labels:
4H43-AA = molecular target: T1, 4H43-AA; test: two-hybrid library CCmax; conditions: mean of both orientations;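 further: natural log of median RNA to DNA barcode read ratio; higher means stronger binding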
T1 chain: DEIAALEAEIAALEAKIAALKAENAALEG

4H510-AA = molecular target: T2, 4H510-AA; test: two-hybrid library CCmax; conditions: mean of both orientations;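 further: natural log of median RNA to DNA barcode read ratio; higher means stronger binding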
T2 chain: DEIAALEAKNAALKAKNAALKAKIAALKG

GCN2_T = test: two-hybrid library CCmax;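 further: natural log of median RNA to DNA barcode read ratio; higher means stronger binding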
4H2888-AA = molecular target: T3, 4H2888-AA; test: two-hybrid library CCmax; conditions: mean of both orientations;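 further: natural log of median RNA to DNA barcode read ratio; higher means stronger binding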
T3 chain: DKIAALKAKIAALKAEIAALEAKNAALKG

4H3590-AA = molecular target: T4, 4H3590-AA; test: two-hybrid library CCmax; conditions: mean of both orientations
T4 chain: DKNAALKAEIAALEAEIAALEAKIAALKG

4H2705-AA = molecular target: T5, 4H2705-AA; test: two-hybrid library CCmax; conditions: mean of both orientations
T5 chain: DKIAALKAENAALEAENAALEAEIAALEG

O11-AA = molecular target: T6, O11-AA; test: two-hybrid library CCmax; conditions: mean of both orientations
T6 chain: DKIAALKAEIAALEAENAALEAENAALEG

4H1392-AA = molecular target: T7, 4H1392-AA; test: two-hybrid library CCmax
T7 chain: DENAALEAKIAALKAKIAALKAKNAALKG

4H_BCR = molecular target: T8, 4H_BCR; test: two-hybrid library CCmax; conditions: mean of both orientations
T8 chain: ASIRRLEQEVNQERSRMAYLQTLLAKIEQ

4H3049-AA = molecular target: T9, 4H3049-AA; test: two-hybrid library CCmax; conditions: mean of both orientations
T9 chain: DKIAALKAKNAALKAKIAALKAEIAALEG

4H3905-AA = molecular target: T10, 4H3905-AA; test: two-hybrid library CCmax; conditions: mean of both orientations
T10 chain: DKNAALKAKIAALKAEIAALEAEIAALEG

4H2622-AA = molecular target: T11, 4H2622-AA; test: two-hybrid library CCmax; conditions: mean of both orientations
T11 chain: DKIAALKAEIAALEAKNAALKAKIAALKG

4H3129-AA = molecular target: T12, 4H3129-AA; test: two-hybrid library CCmax
T12 chain: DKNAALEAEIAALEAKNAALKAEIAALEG

4H451-AA = molecular target: T13, 4H451-AA; test: two-hybrid library CCmax; conditions: mean of both orientations
T13 chain: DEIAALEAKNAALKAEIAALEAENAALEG

O13-AA = molecular target: T14, O13-AA; test: two-hybrid library CCmax; conditions: mean of both orientations
T14 chain: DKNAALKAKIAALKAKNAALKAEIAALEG

4H4038-AA = molecular target: T15, 4H4038-AA; test: two-hybrid library CCmax; conditions: mean of both orientations
T15 chain: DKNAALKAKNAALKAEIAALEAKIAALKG

4H3587-AA = molecular target: T16, 4H3587-AA; test: two-hybrid library CCmax; conditions: mean of both orientations
T16 chain: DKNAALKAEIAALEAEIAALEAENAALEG

4H_APH = molecular target: T17, 4H_APH; test: two-hybrid library CCmax; conditions: mean of both orientations
T17 chain: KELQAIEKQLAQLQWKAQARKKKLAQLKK

4H384-AA = molecular target: T18, 4H384-AA; test: two-hybrid library CCmax; conditions: mean of both orientations
T18 chain: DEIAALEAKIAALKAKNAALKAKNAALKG

O14-AA = molecular target: T19, O14-AA; test: two-hybrid library CCmax; conditions: mean of both orientations
T19 chain: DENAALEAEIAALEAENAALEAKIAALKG

4H2736-AA = molecular target: T20, 4H2736-AA; test: two-hybrid library CCmax; conditions: mean of both orientations
T20 chain: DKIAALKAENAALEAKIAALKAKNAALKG

4H337-AA = molecular target: T21, 4H337-AA; test: two-hybrid library CCmax; conditions: mean of both orientations
T21 chain: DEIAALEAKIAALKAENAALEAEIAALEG

4H_GCN4 = test: two-hybrid library CCmax
Chain of 4H_GCN4 (chain, as listed by the source): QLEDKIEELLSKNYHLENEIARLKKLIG

4H3625-AA = molecular target: T22, 4H3625-AA; test: two-hybrid library CCmax; conditions: mean of both orientations
T22 chain: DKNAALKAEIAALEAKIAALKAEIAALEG

4H3613-bH = molecular target: T23, 4H3613-bH; test: two-hybrid library CCNG1
T23 chain: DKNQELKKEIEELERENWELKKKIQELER

4H850-bH = molecular target: T24, 4H850-bH; test: two-hybrid library CCNG1
T24 chain: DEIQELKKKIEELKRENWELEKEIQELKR

4H626-bH = molecular target: T25, 4H626-bH; test: two-hybrid library CCNG1
T25 chain: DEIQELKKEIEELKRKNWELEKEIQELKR

4H906-bH = molecular target: T26, 4H906-bH; test: two-hybrid library CCNG1
T26 chain: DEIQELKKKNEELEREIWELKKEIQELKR

4H3175-bH = molecular target: T27, 4H3175-bH; test: two-hybrid library CCNG1
T27 chain: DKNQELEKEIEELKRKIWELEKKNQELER

4H3628-bH = molecular target: T28, 4H3628-bH; test: two-hybrid library CCNG1
T28 chain: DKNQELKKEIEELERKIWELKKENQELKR

4H1899-bH = molecular target: T29, 4H1899-bH; test: two-hybrid library CCNG1
T29 chain: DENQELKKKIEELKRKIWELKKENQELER

4H3497-bH = molecular target: T30, 4H3497-bH; test: two-hybrid library CCNG1
T30 chain: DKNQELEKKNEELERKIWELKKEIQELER

4H1985-bH = molecular target: T31, 4H1985-bH; test: two-hybrid library CCNG1
T31 chain: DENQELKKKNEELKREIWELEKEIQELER

4H3298-bH = molecular target: T32, 4H3298-bH; test: two-hybrid library CCNG1
T32 chain: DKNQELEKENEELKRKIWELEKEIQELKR

4H3070-bA = molecular target: T33, 4H3070-bA; test: two-hybrid library CCNG1
T33 chain: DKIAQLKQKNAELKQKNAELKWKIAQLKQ

4H3277-bH = molecular target: T34, 4H3277-bH; test: two-hybrid library CCNG1
T34 chain: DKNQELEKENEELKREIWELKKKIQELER

4H3162-bH = molecular target: T35, 4H3162-bH; test: two-hybrid library CCNG1
T35 chain: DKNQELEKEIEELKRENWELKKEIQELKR

4H1544-bH = molecular target: T36, 4H1544-bH; test: two-hybrid library CCNG1
T36 chain: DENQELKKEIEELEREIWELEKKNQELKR

4H1710-bH = molecular target: T37, 4H1710-bH; test: two-hybrid library CCNG1
T37 chain: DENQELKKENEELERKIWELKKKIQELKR

4H3926-bH = molecular target: T38, 4H3926-bH; test: two-hybrid library CCNG1
T38 chain: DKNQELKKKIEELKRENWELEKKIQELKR

4H3858-bH = molecular target: T39, 4H3858-bH; test: two-hybrid library CCNG1
T39 chain: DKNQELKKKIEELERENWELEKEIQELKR

4H3817-bH = molecular target: T40, 4H3817-bH; test: two-hybrid library CCNG1
T40 chain: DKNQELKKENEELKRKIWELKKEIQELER

4H3462-bH = molecular target: T41, 4H3462-bH; test: two-hybrid library CCNG1
T41 chain: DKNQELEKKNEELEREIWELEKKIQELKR

4H3974-bH = molecular target: T42, 4H3974-bH; test: two-hybrid library CCNG1
T42 chain: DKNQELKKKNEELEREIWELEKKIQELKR

4H570-bH = molecular target: T43, 4H570-bH; test: two-hybrid library CCNG1
T43 chain: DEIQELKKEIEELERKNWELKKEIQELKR

4H591-bH = molecular target: T44, 4H591-bH; test: two-hybrid library CCNG1
T44 chain: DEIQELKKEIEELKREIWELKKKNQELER

O15 = molecular target: T45, O15; test: two-hybrid library CC0; conditions: mean of both orientations
T45 chain: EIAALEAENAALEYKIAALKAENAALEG

O6 = molecular target: T46, O6; test: two-hybrid library CC0; conditions: mean of both orientations
T46 chain: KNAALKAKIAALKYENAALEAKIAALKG

O14 = molecular target: T47, O14; test: two-hybrid library CC0; conditions: mean of both orientations
T47 chain: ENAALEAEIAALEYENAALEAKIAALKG

O16 = molecular target: T48, O16; test: two-hybrid library CC0; conditions: mean of both orientations
T48 chain: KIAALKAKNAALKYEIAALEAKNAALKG

O9 = molecular target: T49, O9; test: two-hybrid library CC0; conditions: mean of both orientations
T49 chain: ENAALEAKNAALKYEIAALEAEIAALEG

O4 = molecular target: T50, O4; test: two-hybrid library CC0; conditions: mean of both orientations
T50 chain: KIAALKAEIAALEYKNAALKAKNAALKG

O3 = molecular target: T51, O3; test: two-hybrid library CC0; conditions: mean of both orientations
T51 chain: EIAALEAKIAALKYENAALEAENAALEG

O2 = molecular target: T52, O2; test: two-hybrid library CC0; conditions: mean of both orientations
T52 chain: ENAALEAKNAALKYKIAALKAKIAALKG

O5 = molecular target: T53, O5; test: two-hybrid library CC0; conditions: mean of both orientations
T53 chain: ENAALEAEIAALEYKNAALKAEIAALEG

O8 = molecular target: T54, O8; test: two-hybrid library CC0; conditions: mean of both orientations
T54 chain: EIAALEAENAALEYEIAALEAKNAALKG

O7 = molecular target: T55, O7; test: two-hybrid library CC0; conditions: mean of both orientations
T55 chain: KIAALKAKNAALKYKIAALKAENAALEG

interaction score (4H43-AA): 1.25 | interaction score (4H510-AA): -1.62 | interaction score (GCN2_T): -1.63 | interaction score (4H2888-AA): -0.448 | interaction score (4H3590-AA): 1.89 | interaction score (4H2705-AA): -1.59 | interaction score (O11-AA): 1.25 | interaction score (4H1392-AA): -0.666 | interaction score (4H_BCR): -2.2 | interaction score (4H3049-AA): -0.0185 | interaction score (4H3905-AA): 0.91 | interaction score (4H2622-AA): -1.4 | interaction score (4H3129-AA): -1.07 | interaction score (4H451-AA): -0.924 | interaction score (O13-AA): -1.99 | interaction score (4H4038-AA): 0.56 | interaction score (4H3587-AA): 2.24 | interaction score (4H_APH): -1.59 | interaction score (4H384-AA): -1.28 | interaction score (O14-AA): 0.474 | interaction score (4H2736-AA): -1.42 | interaction score (4H337-AA): -0.783 | interaction score (4H_GCN4): -1.48 | interaction score (4H3625-AA): -0.223
Binder: DENAALEAKIAALKAKIAALKAKNAALKG [4H1392-AA]

interaction score (4H3613-bH): 0.423 | interaction score (4H850-bH): 1.29 | interaction score (4H626-bH): -0.838 | interaction score (4H906-bH): 0.0592 | interaction score (4H3175-bH): -0.419 | interaction score (4H3628-bH): -0.0215 | interaction score (4H1899-bH): 1.61 | interaction score (4H3497-bH): 0.211 | interaction score (4H1985-bH): 0.533 | interaction score (4H3298-bH): 0.51 | interaction score (4H3070-bA): 0.826 | interaction score (4H3277-bH): 0.893 | interaction score (4H3162-bH): 0.879 | interaction score (4H1544-bH): 0.599 | interaction score (4H1710-bH): 0.154 | interaction score (4H3926-bH): 0.243 | interaction score (4H3858-bH): 0.651 | interaction score (4H3817-bH): 0.913 | interaction score (4H3462-bH): 0.608 | interaction score (4H3974-bH): 0.61 | interaction score (4H570-bH): 0.232 | interaction score (4H591-bH): 1.2
Binder: DENQELKKEIEELEREIWELEKKNQELKR [4H1544-bH]

Binder: ENAALEAEIAALEYENAALEAKIAALKG [O14]
interaction score (O15): -2.74 | interaction score (O6): 0.177 | interaction score (O14): -2.52 | interaction score (O16): 0.961 | interaction score (O9): -2.64 | interaction score (O4): -2.52 | interaction score (O3): -2.51 | interaction score (O2): -2.38 | interaction score (O5): -0.24 | interaction score (O8): -2.58 | interaction score (O7): -1.03
